Experimental data as given in patent publication US20210063414A1, “METHODS FOR PREVENTING AND/OR TREATING BONE LOSS CONDITIONS BY MODULATING IRISIN” (Dana-Farber Cancer Institute, Inc., priority 2018, published 2021).

Legend:
[1] = target: T1, MLO-Y4 cell surface proteins (Mus musculus, UniProt P48997); assay: Crosslinking/co-immunoprecipitation/mass spectrometry (TMT quantitative proteomics) to identify irisin receptors; assay type: binding; settings: co-precipitated protein Ivl (INVO_MOUSE)
T1 construct: endogenous in cells; host or cells: MLO-Y4
T1 sequence (P48997 1-467): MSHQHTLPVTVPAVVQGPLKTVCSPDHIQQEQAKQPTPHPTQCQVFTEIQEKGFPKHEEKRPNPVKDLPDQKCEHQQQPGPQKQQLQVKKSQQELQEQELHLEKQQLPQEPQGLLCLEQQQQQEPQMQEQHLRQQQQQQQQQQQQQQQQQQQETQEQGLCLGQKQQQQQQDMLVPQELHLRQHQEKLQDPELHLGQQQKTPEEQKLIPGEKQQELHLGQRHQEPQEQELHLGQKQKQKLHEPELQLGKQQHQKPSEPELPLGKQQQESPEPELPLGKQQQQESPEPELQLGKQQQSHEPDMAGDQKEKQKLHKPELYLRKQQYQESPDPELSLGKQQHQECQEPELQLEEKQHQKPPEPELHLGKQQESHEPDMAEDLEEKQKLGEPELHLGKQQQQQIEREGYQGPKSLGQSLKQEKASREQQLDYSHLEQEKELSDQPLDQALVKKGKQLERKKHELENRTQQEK
Method in brief: (§1)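 Relative protein abundance came from 6-plex TMT MS3 quantitation on an Orbitrap Fusion Lumos, after in-gel trypsin digestion of Coomassie-stained SDS-PAGE lanes. Input was a Ni-NTA pulldown (250 mM imidazole elution) of lysates from murine MLO-Y4 cells. These cells were treated on ice with His-tagged irisin or adipsin (10 nM, 20 min) in serum-free medium, then crosslinked with 1.5 mM DTSSP for 30 min.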

[2] = target: T2, MLO-Y4 cell surface proteins (Mus musculus, UniProt P16460); assay: as above; assay type: binding; settings: co-precipitated protein Ass1 (ASSY_MOUSE)
T2 construct: endogenous in cells; host or cells: MLO-Y4
T2 sequence (P16460 1-412): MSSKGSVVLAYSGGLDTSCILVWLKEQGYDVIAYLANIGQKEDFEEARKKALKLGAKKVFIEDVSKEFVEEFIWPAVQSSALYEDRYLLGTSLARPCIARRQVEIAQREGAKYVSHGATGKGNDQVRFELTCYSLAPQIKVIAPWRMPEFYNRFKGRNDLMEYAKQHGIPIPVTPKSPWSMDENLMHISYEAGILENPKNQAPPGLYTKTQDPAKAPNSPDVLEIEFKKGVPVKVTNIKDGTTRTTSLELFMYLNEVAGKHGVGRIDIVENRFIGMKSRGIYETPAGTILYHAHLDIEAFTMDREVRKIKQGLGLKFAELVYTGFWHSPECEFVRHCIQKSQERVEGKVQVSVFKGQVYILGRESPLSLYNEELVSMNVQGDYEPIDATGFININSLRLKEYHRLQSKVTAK
Method in brief: as §1

- TMT signal-to-noise ratio [1]: 222.079
- TMT signal-to-noise ratio [2]: 285.885
Substance: adipsin
